Results published in publication PMC10287707.

T1: TIA1 RRM2-3 (Homo sapiens, UniProt P31483-2 93-274)
T1 sequence: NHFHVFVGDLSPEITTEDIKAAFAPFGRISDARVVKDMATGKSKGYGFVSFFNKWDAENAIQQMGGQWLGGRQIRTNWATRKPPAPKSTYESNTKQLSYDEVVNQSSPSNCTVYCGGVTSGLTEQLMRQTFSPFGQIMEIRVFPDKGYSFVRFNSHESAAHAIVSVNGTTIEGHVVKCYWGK

T2: TIA1 RRM2_3 (human, UniProt P31483-2 93-274)
T2 sequence: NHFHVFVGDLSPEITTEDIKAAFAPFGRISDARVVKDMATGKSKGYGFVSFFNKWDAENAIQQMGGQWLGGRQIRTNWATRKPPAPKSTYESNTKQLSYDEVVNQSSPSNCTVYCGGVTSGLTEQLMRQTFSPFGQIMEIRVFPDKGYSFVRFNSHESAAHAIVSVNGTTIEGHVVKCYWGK


Assays:
TIA1 RRM2-3 = biological target: T1, TIA1 RRM2-3; experiment: EMSA; 10 mM sodium phosphate pH 6.5, 50 mM NaCl, 1 mM DTT; room temperature, 20 min; 1.2% agarose; protein 0.1-10 uM; RNA annealed in 10 mM Tris pH 7.5, 100 mM KCl; conditions: tags: His6-SUMO (cleaved; BamHI linker Ser or Gly-Ser may stay); label: 5' Cy3
TIA1 RRM2_3 [1] = biological target: T2, TIA1 RRM2_3; experiment: EMSA; EMSA: 10 mM sodium phosphate pH 6.5, 50 mM NaCl, 1 mM DTT, 1 U/ul SUPERase-In, room temperature 20 min, native 1.2% agarose; RNA annealed in 10 mM Tris-HCl pH 7.5, 100 mM KCl; conditions: protein: recombinant; tags: His6-SUMO removed by SUMO protease; label: 5'-Cy3; hairpin
TIA1 RRM2_3 [2] = biological target: T2, TIA1 RRM2_3; experiment: as above; conditions: protein: recombinant, tags: His6-SUMO removed by SUMO protease, label: 5'-Cy3, hairpin

Binder | Kd (TIA1 RRM2-3) [nM] | binding signal (TIA1 RRM2_3 [1]) [kcal/mol ddG vs WT SL3] | Kd (TIA1 RRM2_3 [2]) [nM] | also measured
UGUUCUCUAAACGAACUCUAA (structured_RNA) [SL3 U77C] | 1280 ± 180 | 0.29 ± 0.11 |  | 
UGUUCUCUAAACGAACGGGAA (structured_RNA) [SL3-TL-G3] | 2770 ± 630 |  |  | 
UGUUCUCUAAACGAACUGUAA (structured_RNA) [SL3 U77G] | 5770 ± 1460 | 1.18 ± 0.17 |  | 
UGUUCUCUAAACGAACU (structured_RNA) [SL3-TL1] |  |  |  | Kd (TIA1 RRM2_3 [2]; 1-nt 3' tail): 2860 ± 550 nM
UGUUCUCUAAACGAACUUCAA (structured_RNA) [SL3 U78C] | 1340 ± 190 |  | 1340 ± 190 | 
UGUUCUCUAAACGAACAUUAA (structured_RNA) [SL3 U76A] | 6160 ± 1850 | 1.22 ± 0.2 |  | 
UGUUCUUUUUUUGAACUUUAA (structured_RNA) [SL3-HP-U7] |  |  | 540 ± 30 | 
UGUUCUCUAAACGAACGUUAA (structured_RNA) [SL3 U76G] | 3870 ± 1250 | 0.94 ± 0.21 |  | 
UGUUCUCUAAACGAACUUAAA (structured_RNA) [SL3 U78A] | 7540 ± 2120 | 1.34 ± 0.19 |  | 
UGUUCUCUACACGAACUUUAA (structured_RNA) [SL3 A69C] |  |  | 420 ± 40 | 
UGUUCUCUUAACGAACUUUAA (structured_RNA) [SL3 A68U] |  |  | 460 ± 50 | 
UGUUCUCUAAACGAACUAUAA (structured_RNA) [SL3 U77A] | 4660 ± 1540 | 1.05 ± 0.2 |  | 
UGUUCCCCCCCCGAACUUUAA (structured_RNA) [SL3-HP-C7] |  |  | 1950 ± 440 | 
UGUUCUCUAAACGAACCCCAA (structured_RNA) [SL3-TL-C3] | 2220 ± 360 |  |  | 
UGUUCUCUGAACGAACUUUAA (structured_RNA) [SL3 A68G] | 900 ± 110 | 0.09 ± 0.1 |  | 
UGUUCUAAGAACUUUAA (structured_RNA) [SL3-HP3] |  |  |  | Kd (TIA1 RRM2_3 [2]; 3-nt loop): 3870 ± 1060 nM
UGUUCUCUCAACGAACUUUAA (structured_RNA) [SL3 A68C] | 730 ± 80 | -0.04 ± 0.1 |  | 
UGGGCUCUAAACGCCCUUUAA (structured_RNA) [SL3-GC] |  |  | 5650 ± 1700 | 
UGUUCUCCAAACGAACUUUAA (structured_RNA) [SL3 U67C] | 3340 ± 1040 | 0.85 ± 0.21 |  | 
